We go through two substances from paper PMC2116221.

In the experiment the target is taxol-stabilized microtubules (bovine brain tubulin) (bovine) (UniProt Q6B856). Put plainly: co-sedimentation.
Chain of UniProt Q6B856 (Q6B856 whole entry, looked up): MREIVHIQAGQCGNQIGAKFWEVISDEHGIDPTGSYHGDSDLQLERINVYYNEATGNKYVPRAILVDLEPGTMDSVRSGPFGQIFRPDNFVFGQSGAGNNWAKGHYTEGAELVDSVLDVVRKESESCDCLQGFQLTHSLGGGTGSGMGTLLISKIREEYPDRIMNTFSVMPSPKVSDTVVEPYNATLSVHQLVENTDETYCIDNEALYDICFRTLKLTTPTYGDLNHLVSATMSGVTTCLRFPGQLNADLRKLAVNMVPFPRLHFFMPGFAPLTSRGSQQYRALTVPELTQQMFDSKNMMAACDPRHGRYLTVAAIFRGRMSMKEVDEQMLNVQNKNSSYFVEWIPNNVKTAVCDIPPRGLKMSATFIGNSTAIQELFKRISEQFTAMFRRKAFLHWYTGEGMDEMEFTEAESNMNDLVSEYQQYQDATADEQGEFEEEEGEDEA

“CHO1 antigen, polypeptide of ~115 kD (HeLa cytoplasm) (from UniProt Q02241 1-960) (natural protein)” returned a percent extracted from microtubules by 0.5 M NaCl of 60%.
The figure for “CHO1 antigen, polypeptide of ~100 kD (HeLa cytoplasm) (from UniProt Q02241-2 1-856) (natural protein)” is 60%.
